Assay results as given in IntAct's records for PubMed 12502741.

B1: Retinoblastoma-associated protein (Homo sapiens), P06400 (parent)
chain: MPPKTPRKTAATAAAAAAEPPAPPPPPPPEEDPEQDSGPEDLPLVRLEFEETEEPDFTALCQKLKIPDHVRERAWLTWEKVSSVDGVLGGYIQKKKELWGICIFIAAVDLDEMSFTFTELQKNIEISVHKFFNLLKEIDTSTKVDNAMSRLLKKYDVLFALFSKLERTCELIYLTQPSSSISTEINSALVLKVSWITFLLAKGEVLQMEDDLVISFQLMLCVLDYFIKLSPPMLLKEPYKTAVIPINGSPRTPRRGQNRSARIAKQLENDTRIIEVLCKEHECNIDEVKNVYFKNFIPFMNSLGLVTSNGLPEVENLSKRYEEIYLKNKDLDARLFLDHDKTLQTDSIDSFETQRTPRKSNLDEEVNVIPPHTPVRTVMNTIQQLMMILNSASDQPSENLISYFNNCTVNPKESILKRVKDIGYIFKEKFAKAVGQGCVEIGSQRYKLGVRLYYRVMESMLKSEEERLSIQNFSKLLNDNIFHMSLLACALEVVMATYSRSTSQNLDSGTDLSFPWILNVLNLKAFDFYKVIESFIKAEGNLTREMIKHLERCEHRIMESLAWLSDSPLFDLIKQSKDREGPTDHLESACPLNLPLQNNHTAADMYLSPVRSPKKKGSTTRVNSTANAETQATSAFQTQKPLKSTSLSLFYKKVYRLAYLRLNTLCERLLSEHPELEHIIWTLFQHTLQNEYELMRDRHLDQIMMCSMYGICKVKNIDLKFKIIVTAYKDLPHAVQETFKRVLIKEEEYDSIIVFYNSVFMQRLKTNILQYASTRPPTLSPIPHIPRSPYKFPSSPLRIPGGNIYISPLKSPYKISEGLPTPTKMTPRSRILVSIGESFGTSEKFQKINQMVCNSDRVLKRSAEGSNPPKPLKKLRFDIEGSDEADGSKHLPGESKFQQKLAEMTSTRTRMQKQKMNDSMDTSNKEEK

Variants of: B1
Conditions: with e2f1_human E2F1, Q01094
Chain of e2f1_human E2F1, Q01094 (Q01094 whole entry): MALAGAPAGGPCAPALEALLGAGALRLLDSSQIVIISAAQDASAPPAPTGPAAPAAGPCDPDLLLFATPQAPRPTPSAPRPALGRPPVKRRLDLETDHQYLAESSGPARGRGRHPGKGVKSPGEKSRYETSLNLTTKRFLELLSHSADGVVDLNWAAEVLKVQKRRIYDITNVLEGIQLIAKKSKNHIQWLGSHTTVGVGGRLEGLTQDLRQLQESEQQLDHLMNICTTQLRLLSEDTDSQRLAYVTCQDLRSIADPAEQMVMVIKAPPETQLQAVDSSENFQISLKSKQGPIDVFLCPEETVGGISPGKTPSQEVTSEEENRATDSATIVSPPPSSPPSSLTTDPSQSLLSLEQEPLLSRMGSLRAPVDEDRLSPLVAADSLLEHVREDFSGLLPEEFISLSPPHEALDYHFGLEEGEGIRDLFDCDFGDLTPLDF

Effect of a mutation on the interaction, decreasing interaction strength:
K653A
R467A
E554A
F482A
